For test [1], the target named is FBG-like domain of human Tenascin-X (human). Briefly: SPR; Biacore T200; FBG-like domains immobilised on CM5 by amine coupling; mature TGF-β1 injected in single-cycle mode; PBS with 0.05% P-20, 25°C, 30 µl/min; heterogeneous ligand model; apparent constants. (Surface plasmon resonance follows binding to a sensor surface in real time, without labels.)
Test [2] has as its target FBG-like domain of human Tenascin-W with Arg1220 changed to alanine (FBG-W^RKKA) (human). Described as above.

Regarding “recombinant human mature TGF-β1 (ligand)”, in test [1], the ka1 (heterogeneous ligand model, site 1) came out at 8080 M⁻¹ s⁻¹; the ka2 (heterogeneous ligand model, site 2) was 207000 M⁻¹ s⁻¹; the kd1 (heterogeneous ligand model, site 1) was 0.00276 s⁻¹; the kd2 (heterogeneous ligand model, site 2) worked out at 0.0845 s⁻¹. In test [2], the KD1 (heterogeneous ligand model, site 1) amounted to 1.89 µM; the KD2 (heterogeneous ligand model, site 2) came to 6.48 µM; the ka1 (heterogeneous ligand model, site 1) is 1040 M⁻¹ s⁻¹; the ka2 (heterogeneous ligand model, site 2) came out at 14300 M⁻¹ s⁻¹. Besides, in test [2], the kd1 (heterogeneous ligand model, site 1) was 0.00196 s⁻¹ and the kd2 (heterogeneous ligand model, site 2) stood at 0.0926 s⁻¹.

Values taken from publication PMC8155481.
